Square brackets hold non-standard residues; d marks the D form. Ends that are not written are not given here.
Molecular target: GFP1-10 protein
Assay: cell-based or functional assay

Binder	split GFP assay, GFP fluorescence over background, 10 µM, 22 °C	split GFP assay, GFP fluorescence over background, 10 µM, 37 °C	split GFP assay, GFP fluorescence against Tat-GFP-11, 40 µM, 37 °C and 22 °C
[dR][dK][dK][dR][dW][dF][dR][dR][dR][dR][dP][dK][dW][dK][dK]RDHMVLHEYVNAAGIT [CPP-1(D)-GFP-11]	2.2 fold	2.1 fold	
G[dR][dK][dK][dR][dR][dQ][dR][dR][dR][dP][dP][dQ]RDHMVLHEYVNAAGIT [Tat(D)-GFP-11]			2 fold

— US20200276322A1 (ADMINISTRATORS OF THE TULANE EDUCATIONAL FUND, published 2020)
